± gives the uncertainty stated by the source.
assay: amyloid nucleation score (Sup35N fusion, yeast selection) (log enrichment); library NNK3; higher = more nucleation; inactive = no reads after selection
Summary of the method: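 Output and input plasmid inserts were sequenced by Illumina after psi-negative yeast carrying Sup35N fused to peptides of 20 random codons had been induced 24 hours with 100 μM copper sulfate and grown 7 days at 30°C on medium lacking adenine and uracil. The nucleation score is the DiMSum log enrichment of output over input reads, centred on the mode score of non-aggregating sequences. Sequences with under 100 input reads were excluded.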

Row | Substance | amyloid nucleation score
1 | TVGQQWRPSRKLSSSSAIRN | inactive
2 | GGRTM | inactive
3 | FIRIHRNAI | inactive
4 | GVLREEL | inactive
5 | YGSKWTLKVFWIMMCFDELP | inactive
6 | ELRLHNFTFRLVASFWLLRV | inactive
7 | EVIRCRSSEEIPGRTNSMWD | inactive
8 | FLMCVNFVCCIIMCCGTIWG | inactive
9 | AFVNLYGKSARQSRQPMA | inactive
10 | RFGFSVKFMYDDGMSAVCTS | inactive
11 | NCGNAPFGFVRP | inactive
12 | DSIFSWSFRGFSCVN | inactive
13 | FVFGN | inactive
14 | PCDQD | inactive
15 | WIVKL | inactive
16 | TNNQNSDRFGVTVPSLTFVR | inactive
17 | WQRNFEWIYDPLRAKSWNSI | -0.558 ± 0.76
18 | LTGCRL | inactive
19 | FWNVLWATRLYFFSFYDITS | inactive
20 | CDRRFYRMNLCKNPFNYRFG | 0.55 ± 0.16
21 | YFGSV | inactive
22 | KGETDFVLKP | -0.432 ± 0.87
23 | DVFRRFAGRTLQLSPWDTTL | inactive

Row | Substance | amyloid nucleation score
24 | YDDVFFYSWVTFLRQLFDPL | inactive
25 | PVYGSLCRFYGVRYGR | inactive
26 | LCRSGIFKSYWNITMFFKFL | inactive
27 | WIHRMLSSGVDSPRNTSLWT | inactive
28 | DLCVLAMASFEVAIAHGRPR | 0.172 ± 0.88
29 | RISINGFNNLNYLLS | 1.39 ± 0.1
30 | AWRRSSEGYRFGNDYVTRAT | inactive
31 | NRMRPIDNLGHISMFGVLGG | inactive
32 | WELMCKALGRGRRCWYKCFL | inactive
33 | LNIRGSFCFYGSWIVADFHM | 0.336 ± 0.38
34 | CNMGYSIFVFILNLSPV | 1.99 ± 0.09
35 | LDTSD | inactive
36 | YLVWVFPEWPC | 1.39 ± 0.13
37 | LDYPNVCMDFLSKVFRDSVR | inactive
38 | NMMAYFVFLGMKANFYMWVW | inactive
39 | LKYSSDQYLCRTFLGISGFG | inactive
40 | FLIVGFPGNKLGC | 0.848 ± 0.1
41 | AVLHMSCNWDKQFYNLLCFC | inactive
42 | NTRSPAESMHHPLMAMAVKN | inactive
43 | LAKHSFSFGVYCNSRNSVMY | inactive
44 | ARLHVILCDGCHVRMCPEMG | inactive
45 | MYFMGLFFMTGVGFSMKEVE | inactive
46 | ADLPCDVATNLVPLTRSSQM | inactive

Row | Substance | amyloid nucleation score
47 | FPMSIESDSLNSGRGLRPWG | inactive
48 | TCSSINTLLKYMFLSISLFR | inactive
49 | YGQGSGGIGRRVAGQDCNLI | inactive
50 | LHEEGCATVLKVGCALTSEC | inactive
51 | ICLILARINPSIRDLLG | 0.298 ± 0.74
52 | FYGFGGISIRSGVVGIVDMK | inactive
53 | RVARMFGEY | inactive
54 | FLNLIYNLGRLWFQQLTRFK | inactive
55 | VKRGFEWFCSMTHFNTSCIR | inactive
56 | FNSYHTANRYI | inactive
57 | MGVVNFVITGNSYCAKVMLY | inactive
58 | IEAVCNSWRIYGM | inactive
59 | LGSMAINCNERCITWCHRFI | 0.668 ± 0.25
60 | QVNFGRGQRTLVWTGIRCSH | inactive
61 | LDLLHFGYFIYFDEL | inactive
62 | SEICF | inactive
63 | PWDSLW | 0.894 ± 0.12
64 | SVESACFTSSWVNHFFTFSN | inactive
65 | WLDWSAGHCGYVKLLW | inactive
66 | RWSVLILNPPISKKHPDDK | 0.345 ± 0.69
67 | INFLCTDAFTMKFTGAYGKH | 2.4 ± 0.054
68 | VASTVSRVAKDTKAKVAYR | inactive
69 | NSCSVVMFPYH | inactive

Row | Substance | amyloid nucleation score
70 | WNMVYFLLQFSIDASLGT | inactive
71 | FLHDFSILIGMICNQIGITL | 1.24 ± 0.17
72 | FGVVH | inactive
73 | NRYIGNIYEKNGNSNFKPSI | inactive
74 | QLLCHYNSSSEFLTQKHRYW | inactive
75 | SNVNTAWKRFTRI | inactive
76 | IYGVRYWV | inactive
77 | KTWVSIVSGLKADSGGGLHA | inactive
78 | EGVTII | inactive
79 | IKPSMQIILWFGLERYSRAW | -0.308 ± 0.6
80 | KVTYFKSMMHYDNMQSSVRC | inactive
81 | RVLATFCG | inactive
82 | FRYRNSSTEVCWKRSWLTLG | inactive
83 | SMLSMLTLRSLSLTFMKRNQ | 0.626 ± 0.32
84 | YYYLR | inactive
85 | LCRKPFDVGLGRV | inactive
86 | LRASTPYHPMLFELGKLALI | inactive
87 | YSMDTPCFINSGVFSADPNL | inactive
88 | RSMSTGNH | inactive
89 | GIIHDVMDTTNGKIVSS | inactive
90 | RFYKRICLLYPTRSEGESGF | inactive
91 | CIFCRFFKVLVGHSYL | inactive
92 | NLFLGCQN | inactive

Row | Substance | amyloid nucleation score
93 | IHIGTPFRGSHTFASVRRK | inactive
94 | YWAQLPNPPYLLCPH | inactive
95 | ISDDICSVKVSGRRACHWIG | inactive
96 | TWGPHLIPLFNNL | inactive
97 | YSGLGSIVTNGYSYIYGEVL | inactive
98 | LLVVYIFTGPLTVPHVWTIE | inactive
99 | TVLYFA | inactive
100 | LHYKCNDVHQNGMLELCYLN | inactive
101 | RYYDLVSGSWWIYFG | inactive
102 | NGMAFGSRVNRLGGCSEVEV | inactive
103 | CKARTSASSNQHRESVYGLE | inactive
104 | WQPDTVKGEVLLRVGTMLSV | inactive
105 | CHPGASSTGSKLTSRNCL | inactive
106 | LIACNVPVVEVRTSIGVKDI | inactive
107 | PVNGAVYTKGLTSWLRFIVV | -0.178 ± 0.82
108 | WEWVRPFFLLGYAPEPNITI | 0.232 ± 0.48
109 | GSSRCNGRLWSAG | inactive
110 | IFIIIGRRFIILKSLVRLHF | inactive
111 | GSYRWAVGGKDWGHWDRCLA | inactive
112 | WFVQLSRMWFYANGNCPV | inactive
113 | TWGKRFYSGIMVQCIREEWA | -0.741 ± 1.7
114 | DISPYFLYE | inactive
115 | DRDSALWIMTVWVRGSHYTR | inactive

Row | Substance | amyloid nucleation score
116 | YYFFRKYEENFSGSNTGLVI | inactive
117 | YIVNLGKFKCQNLMRSCRLK | 1.07 ± 0.12
118 | TSGQSVVSSRTHCVIRCRRR | inactive
119 | YIPVSTFM | -0.135 ± 0.6
120 | VSTHVLHPYTYT | inactive
121 | IARINGMLASSGVASTM | inactive
122 | RKLLCWTRDGRIWMRVEGTA | inactive
123 | MINSCFK | inactive
124 | SPFVCHEPLLRVVWSSTCSF | inactive
125 | NPDCSQTMARGLRNSLVFLQ | inactive
126 | HIVMVLRSLAYVSSSTHGRR | inactive
127 | FVLGGFLNKN | -0.11 ± 1.4
128 | KVGAGIDIISFIRNLILALP | inactive
129 | GSSWCLTLWLKNSLATVQTQ | inactive
130 | KYYINVVNRRYLNYFGTWLF | 0.617 ± 0.12
131 | SNLFTGYGELFVPGS | inactive
132 | CSRALYGCDRISRGLLEVCG | inactive
133 | FGQYSGVSCNWTPGCPAPCF | inactive
134 | NTYLVWIPRSFGQGKSNCLK | inactive
135 | NIFWP | inactive
136 | KFYAYSEDMVSQYI | inactive
137 | DRTMQVIIYARQRVPLKWVS | inactive
138 | FSVFN | inactive

Row | Substance | amyloid nucleation score
139 | SISCCGIILIKNQASMPWAS | 2.96 ± 0.079
140 | FSVVLYKRWWRTRMATGLLK | inactive
141 | QLYVTPYLRDVWYDQASSYE | inactive
142 | DSHGYIYLCVWVRTQNPWSV | inactive
143 | PPLYSRYLSFNGMTKVPWIC | inactive
144 | GLRFPMRWDCGVRVNYRKSR | inactive
145 | SILDWYVSVVRRGA | inactive
146 | NSMSKVKMLVRSISTIEEVK | inactive
147 | LRVRLCSGSSRIWLEVLVRR | inactive
148 | LRPCRDRRFLVPDDYSSVFF | inactive
149 | VACTVSEAYKCTLIWTHLVR | inactive
150 | MFSCWYIISWCIEVHDGVKI | inactive
151 | ACYITTFLGADSVVEYQNDE | inactive
152 | GDMQMW | inactive
153 | SRYHLDFRYYSINKSLMSGV | inactive
154 | CCTIIRAYVVRELAHINNSW | inactive
155 | VRSHPCSGGTLVGWDSYW | 1.01 ± 0.14
156 | FCPTVCQFMVPPPHPSKKLY | inactive
157 | DACTVVCVCIQSIRGSQVSC | 1.09 ± 0.15
158 | DGAYYGLCMMFNVSVLMGII | 0.063 ± 0.51
